Test results: publication PMC11923092

How the values were obtained:
[1] = SEC; constructs with partial Aes^N fragments fused to MBP, 30 µM each; aggregate and monomer content
[2] = SEC; construct with a partial Aes^N fragment fused to MBP at 150 µM; aggregate content
[3] = SEC; analytical SEC without prior concentration adjustment; cysteine-containing proteins reduced with 0.5 mM TCEP before SEC
[4] = SEC; analytical SEC at 15 °C after dilution to 10 µM and 24 h at 15 °C in 50 mM Tris, 300 mM NaCl, pH 7; aggregate/monomer ratio from peak areas
[5] = SEC; 1P at an isolated protein concentration of 45 µM; monomer against aggregate
[6] = SEC; Superdex 200 10/300, 4 °C, 0.75 mL/min, assay buffer; protein as isolated; soluble aggregate at the void volume against the monomer

13P, MBP fusion of Aes^N aa62-120
aggregated fraction (SEC) [1]: showed a significant aggregated fraction (53%)

14P, MBP fusion of Aes^N aa69-120
aggregated fraction (SEC) [2]: 9% at 30 µM and 15% at 150 µM | aggregated fraction (SEC) [1]: 9% at 30 µM and 15% at 150 µM

GFP-Npu^N-H6 (27P)
monomeric fraction (SEC) [3]: this precursor existed to only 43% as a monomer

MBP-Aes^N-H6 (1P)
monomeric fraction (SEC) [4]: 19% measured for the WT (1P) | monomeric fraction (SEC) [5]: at 45 µM and 135 µM only about 4% and no detectable monomeric species were present | aggregated fraction (SEC) [6]: about 71% of the protein | monomeric fraction (SEC) [6]: about 29%

MBP-Ssp^N-H6 (25P)
aggregated fraction (SEC) [3]: high-molecular weight aggregate fraction (ca. 66%) | monomeric fraction (SEC) [3]: a monomeric fraction (ca. 34%)
